In US20210371517A1:
Read-outs that look alike come from different tables or passages of the source.

Experiments:
Test in all cases: cell-based or functional assay
CD171 (L1CAM) (human) [1] = biological target: CD171 (L1CAM) (human) (UniProt P32004)
CD171 (L1CAM) (human) [2] = biological target: CD171 (L1CAM) (human) (UniProt P32004); remark: listed apart in the source
Fas (CD95) (human) = Fas (CD95) (human) (UniProt P25445)
Sequence of UniProt P25445 (P25445 26-335): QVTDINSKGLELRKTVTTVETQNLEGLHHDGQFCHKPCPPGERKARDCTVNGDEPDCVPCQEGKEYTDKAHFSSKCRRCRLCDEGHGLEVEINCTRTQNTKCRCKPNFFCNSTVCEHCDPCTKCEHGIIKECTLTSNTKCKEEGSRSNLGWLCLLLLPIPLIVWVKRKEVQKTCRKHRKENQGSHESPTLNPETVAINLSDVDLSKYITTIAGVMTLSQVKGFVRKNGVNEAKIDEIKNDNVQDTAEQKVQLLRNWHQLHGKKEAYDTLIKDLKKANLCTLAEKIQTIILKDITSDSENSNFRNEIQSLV

Sequence of UniProt P32004 (P32004 20-1257): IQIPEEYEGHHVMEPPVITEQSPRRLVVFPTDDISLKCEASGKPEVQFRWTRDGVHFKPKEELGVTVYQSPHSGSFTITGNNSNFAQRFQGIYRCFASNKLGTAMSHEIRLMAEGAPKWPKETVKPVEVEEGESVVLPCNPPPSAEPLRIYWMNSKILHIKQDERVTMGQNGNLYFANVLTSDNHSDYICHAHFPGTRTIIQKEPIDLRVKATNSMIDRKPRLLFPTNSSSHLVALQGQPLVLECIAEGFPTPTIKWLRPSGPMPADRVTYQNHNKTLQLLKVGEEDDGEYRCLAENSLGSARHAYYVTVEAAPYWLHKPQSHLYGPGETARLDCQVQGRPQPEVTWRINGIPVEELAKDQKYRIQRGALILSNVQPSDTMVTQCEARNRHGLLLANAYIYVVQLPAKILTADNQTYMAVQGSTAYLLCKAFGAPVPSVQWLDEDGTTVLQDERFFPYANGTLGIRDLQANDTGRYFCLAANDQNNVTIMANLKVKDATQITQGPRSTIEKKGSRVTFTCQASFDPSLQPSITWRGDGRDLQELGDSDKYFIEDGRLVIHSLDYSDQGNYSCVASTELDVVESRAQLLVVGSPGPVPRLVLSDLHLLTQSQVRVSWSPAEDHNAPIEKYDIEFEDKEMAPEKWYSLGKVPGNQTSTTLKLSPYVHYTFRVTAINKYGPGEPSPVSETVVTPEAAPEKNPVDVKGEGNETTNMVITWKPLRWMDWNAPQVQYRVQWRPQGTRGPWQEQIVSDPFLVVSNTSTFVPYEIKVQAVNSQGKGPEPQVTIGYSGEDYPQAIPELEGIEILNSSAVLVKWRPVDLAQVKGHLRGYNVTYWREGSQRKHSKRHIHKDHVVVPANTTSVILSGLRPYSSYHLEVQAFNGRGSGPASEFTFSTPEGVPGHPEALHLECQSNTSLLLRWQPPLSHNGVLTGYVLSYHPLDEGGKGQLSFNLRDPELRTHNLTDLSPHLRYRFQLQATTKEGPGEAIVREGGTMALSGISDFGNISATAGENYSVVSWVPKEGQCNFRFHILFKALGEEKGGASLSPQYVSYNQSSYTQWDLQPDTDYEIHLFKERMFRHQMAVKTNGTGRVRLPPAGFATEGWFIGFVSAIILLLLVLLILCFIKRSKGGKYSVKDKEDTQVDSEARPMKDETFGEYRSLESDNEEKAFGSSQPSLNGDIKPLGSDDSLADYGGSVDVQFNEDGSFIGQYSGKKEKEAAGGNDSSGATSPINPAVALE
Sequence of CE7scFv-IgG4hinge-CD28tm/cyto-4-1BB-zeta (short) CD171-specific chimeric receptor with two costimulatory domains (main): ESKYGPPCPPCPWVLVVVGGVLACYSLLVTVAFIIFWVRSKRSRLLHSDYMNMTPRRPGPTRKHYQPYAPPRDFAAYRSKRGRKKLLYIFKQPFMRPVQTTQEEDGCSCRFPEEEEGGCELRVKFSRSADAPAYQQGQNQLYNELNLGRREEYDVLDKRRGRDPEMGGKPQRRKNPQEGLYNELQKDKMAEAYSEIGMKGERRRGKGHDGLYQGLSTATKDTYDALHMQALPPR

Row | Substance | % CD25+CD69+ T cells after round III of tumor cell co-culture (CD171 (L1CAM) (human) [1]) [%] | % CD25+CD69+ T cells, stress test round I with Be2 cells (CD171 (L1CAM) (human) [1]) [%] | % CD25+CD69+ T cells, stress test round II with Be2 cells (CD171 (L1CAM) (human) [1]) [%] | % CD25+CD69+ T cells, stress test round III with Be2 cells (CD171 (L1CAM) (human) [1]) [%] | % CD25+CD69+ T cells after round III of tumor cell co-culture (CD171 (L1CAM) (human) [2]) [%] | IL-2 secretion in Be2 co-culture, fold over 2G-CAR(SS) (CD171 (L1CAM) (human) [1]) [fold] | TNF-α secretion in Be2 co-culture, fold over 2G-CAR(SS) (CD171 (L1CAM) (human) [1]) [fold] | cytolytic activity against Be2 targets, fold over 2G-CAR(SS) (CD171 (L1CAM) (human) [1]) [fold] | induction of CD137 expression upon tumor contact, fold over 2G-CAR(SS) (CD171 (L1CAM) (human) [1]) [fold] | IFN-γ secretion in Be2 co-culture, fold over 2G-CAR(SS) (CD171 (L1CAM) (human) [1]) [fold] | percentage of cells expressing activation marker CD137, fold over CD171-CAR(SS) (CD171 (L1CAM) (human) [1]) [fold] | phospho-ERK level after co-culture with CD171+ Be2 cells, fold over CD171-CAR(SS) (CD171 (L1CAM) (human) [1]) [fold] | T cell viability of 2G-CAR(LS) CTLs after round III following siRNA knockdown of Fas, fold increase (Fas (CD95) (human)) [fold] | T cell viability of 2G-CAR(LS) CTLs after round III following siRNA knockdown of FasL, fold increase (Fas (CD95) (human)) [fold]
1 | CE7scFv-IgG4hinge-CD28tm/4-1BB-zeta (short) CD171-specific chimeric receptor | 40 | 46.8 | 47.6 | 42.1 | 42 |  |  |  |  |  |  |  |  | 
2 | CE7scFv-IgG4hinge-CD28tm/cyto-4-1BB-zeta (short) CD171-specific chimeric receptor with two costimulatory domains | 60 |  |  |  |  | 5.1 | 2.5 | 1.3 | 8.4 |  |  |  |  | 
3 | Ce7scFv-IgG4hinge-CH2-CH3-CD28tm/4-1BB-zeta (long construct) CD171-specific chimeric receptor |  | 79.4 | 74 | 65.7 | 66 | 6.3 | 6.1 |  |  | 8.4 | 5.7 | 3.1 |  | 
4 | Fas ligand (FasL, CD178) (from UniProt P48023 1-281) |  |  |  |  |  |  |  |  |  |  |  |  | 1.4 | 1.6
